{
  "source": "patent US12077763B2",
  "about": "“RNA-based control of powdery mildew” (Greenlight Biosciences, Inc., priority 2021, dated 2024)",
  "molecules": {"B1": {"name": "GS1821: dsRNA trigger SEQ ID NO 131; gene target ABC transporter ATP-binding protein ARB1 (nucleic acid)", "DNA": "AACACCATTAGGCCCTACCAAAGCTGTTCGAGAGTCCATATCAACACCTAGATCCAAATGTCTGTATAAATCATCTTTAGGATCACCAGAGTATGAAAAAGTAACATCGTCAAATGATAACACTGGTGGAGGAAGTTTTTCCACGTCTGCAAATCTGAAAGTAAAGATACGGTCAGGCTCAACTTTTTGAATGAAGCCATCTGCTTCCATCTTGTCTAGTATTTTTTGTCGTGATTTAGCCTGTCTGACTAAGTTGGCATAAGTACCAGCAGATGCAATAAATTTTTTGATATGAGCGATTTCGTCTTGTTGCTTGTGATAAGCTTTCATTTGGTTGACTTCTAACTCAGAGCGGGTCTTTTGGTATGTATCATAATTTCCACCATAATATGTAAGTTGTTTTTGCCGCATATCAATCATATTGGTGCAGACTCCATTTAGAAAGTCCATTGAATGAGACACTAATACAAGACTTCGATCCCACTTCTTAAGATATTCTTCAAGCCACACACAAGCTTCCAAGTCTAAGTGCGCAGTCGGATCATCAAGTAGAAGTAAAGATGGCTTAACAAAAAGGGCTTTTGCTAAAGCTACA"}, "B2": {"name": "GS1819: dsRNA trigger SEQ ID NO 209; gene target Putative ATP-dependent RNA helicase PB1A10.06c (nucleic acid)", "DNA": "CTGGTGCCCTTAACTTGATGGTAAGATTATTCGGCAGAGTTTTTACCATTTGAATATTTGGTATTGATTTATATCCTTGAGCCTCATTTATTTGCTGGATAGCCCAAGCCTTAAACGCAGATCTTTCTTTTCTAGGCGTATTCTCAATTTCATCGCAATCATCAGAACTTTCATTCTCATCACGGCTACTTTCTTTACTGCTATCTGACTCGTAATCAGATAAATTTGGTCCAATTTTATCTCCAACGTCTTCTGAGGAATTTGTCATGTTTCCTATGGTATCACGCTGGATTGACATACTTGAATCTGAGTTTATACCTTCCCATTCTGATTCATCATCGGTGACAGGCTTGCGAATATCAAGAGAAAATTTAGATACAATGCCGCCTCGTCGTTTTCTTTTCCCCAGAATAGGAATTCCCTCCTTACTTATTTCGAGTGGCTTTTTTTAATCCAGCTCCCACAGTTATATCTGTTTGCTTCTGAGTAGTAAGTACTGAAGCTTTAGAGGTCTCATCGATATTATCGTCACATGGAGATATTCTCAGATCATCATTGGTTACAGTACTCTCATCGGAATTGAATTGATTTTCGTT"}, "B3": {"name": "GS3939 (nucleic acid)", "sense": "AAGAUUGAAAAUGGAACGCCUAGAACAGCACCUUUAAUUACAACACGAAGGACUCCGAAAAUGCUACGAUCUACUGUGUCAAAUUCCUCGCUUUCCUCACAACCAUCAAUGUCACCGCAUCAAUUUAUUGCUCUUGCCCGGGAAGCAAUGAAAAAUGCUUUGGAAGAGAACAAAUCAAAGGCAGCUGAGGCCAAAAGUGUUAGUAAUGAACUUAAGCCAGGGGUUACGAUCGAUUUUAGCAACAAACAAAUCCAACGAUUUCCUGAUGAAGUAAUUGAUAUAAUAAAGAAUGAGCUUGAAAGACUUGCGCUGUCACAUAAUCAAAUAUCUGUGUUUCCCUCAAGGUUUUCCGAAUGCAAAUCACUCCGAUACCUCAAUGUUAGAGAUAAUGUUAU", "antisense": "AUAACAUUAUCUCUAACAUUGAGGUAUCGGAGUGAUUUGCAUUCGGAAAACCUUGAGGGAAACACAGAUAUUUGAUUAUGUGACAGCGCAAGUCUUUCAAGCUCAUUCUUUAUUAUAUCAAUUACUUCAUCAGGAAAUCGUUGGAUUUGUUUGUUGCUAAAAUCGAUCGUAACCCCUGGCUUAAGUUCAUUACUAACACUUUUGGCCUCAGCUGCCUUUGAUUUGUUCUCUUCCAAAGCAUUUUUCAUUGCUUCCCGGGCAAGAGCAAUAAAUUGAUGCGGUGACAUUGAUGGUUGUGAGGAAAGCGAGGAAUUUGACACAGUAGAUCGUAGCAUUUUCGGAGUCCUUCGUGUUGUAAUUAAAGGUGCUGUUCUAGGCGUUCCAUUUUCAAUCUU"}, "B4": {"name": "GS3937 (nucleic acid)", "sense": "CAUCUCAACGACUUUGUAGAAUAAAUCAUAGUGAGAUACAGGACUGUGUAGAAAUGCCUCACCACAACAUAAAGAUAAGGCAAUUAAAUUAACUAGAUUGUCAAUCAAAAUAUCAAUAUUUUUUAAGCCCCUCAAGUCUGAUGUGUAUGUGGUGAGAAACCGAACAAGAGAAAGCAGUGAUCUAUAUAGUUCAGACCAGUGAUAUUUCAAUCGUGUCCGUGACCGAGAUAGGUAUGAUAAUAUACUAUAAAUGAUACCAAUGCAAAGAAUAUAUAAAUCAACAUCCAGUCGUCGUCUUAGAUUGUGAUUGAUUCCAUCAAGCAUCGCAUCAAGAAGAAUAGCAGCAAUCGAUCUAUCUCCAUGAACAUAAGGAAGGUACGGAGAUUUUUGUCGACAUA", "antisense": "UAUGUCGACAAAAAUCUCCGUACCUUCCUUAUGUUCAUGGAGAUAGAUCGAUUGCUGCUAUUCUUCUUGAUGCGAUGCUUGAUGGAAUCAAUCACAAUCUAAGACGACGACUGGAUGUUGAUUUAUAUAUUCUUUGCAUUGGUAUCAUUUAUAGUAUAUUAUCAUACCUAUCUCGGUCACGGACACGAUUGAAAUAUCACUGGUCUGAACUAUAUAGAUCACUGCUUUCUCUUGUUCGGUUUCUCACCACAUACACAUCAGACUUGAGGGGCUUAAAAAAUAUUGAUAUUUUGAUUGACAAUCUAGUUAAUUUAAUUGCCUUAUCUUUAUGUUGUGGUGAGGCAUUUCUACACAGUCCUGUAUCUCACUAUGAUUUAUUCUACAAAGUCGUUGAGAUG"}, "B5": {"name": "GS1817: dsRNA trigger SEQ ID NO 139; gene target Cell division control protein 48 (nucleic acid)", "DNA": "GCTTCGCGAAAGTAAGGTGCAAGGAAAACATCAAAGAGGGAACCAGTAAGGCCTTCAACAGTATCTGCGATAGGAAGAACTGCGATACGTTTGGCGTATTTTATATCAGGACATGGATGTACTGTAACAATATCACCATGTTTAACCCTAAGGTTGTGTCGGACAACACGATTCATACGAGCACTCCCGTCATCTAAATCATCATCTGCGAGTACAATTAAAACAGTATCCTTTCGCTTCTTCCCCTTAACTAGGACAGTATCTCCACGAAAAAGCTGCAAAGTTTCCATGGTATTATTTGACAGTGCAATAACAGAGTTATCATCGTTGATGGCATCTGTTACAATTAAGGAATTTGGCTTTTTCTTCTTTTTTAAAATAGCAGTCGCAGTAGCATCAATCGTCTTTTGTTCAGCGCCAGAGGCATCCTCAAGTTTAACTGTTTTTTTACGAGTAGCATTGTCTTCAGACATAGTTGTGTAATAAAAGTTAAGAGGGCGTAATTTCCTAGAAAGAATATATCTACTATTAATTTATTGAGATCTTGGAATGAAGGTTTATCCGATAAAATCTGTAAATGATGGAGCTAATCTGAAG"}, "B6": {"name": "GS3935 (nucleic acid)", "sense": "CACCGCAGGAAACAACACGAGUAAAAUCAUUUUCUUCAACAACAUCUUCUGCAGCAAAAAAAUUUUCUCGUGCACUCUUAUGGCGGUCAAUUUGUAGAGAUUGCUCAUCGAAGACAAUCUGACCAUCAACGAUGCGAAUUUUAGGACCAACCGGAGGAGCAGACGGCGGUGCGAUUUGGCUAUUUAAACUUGGCUCAGUCUUUCUACUUUCAUUUAGGGUAUAAUUGUCACCACUUUUUCCAUCUAUAUAAUCUUCAAGUUCAGGGUUAUCUCGCUUCAUCCUAGCUUUGAUAGCAUUUUGUUUCAUUCGUGCAAGUCGUCCCAUUAUCUCAUCGUGGUUUCUAGACUUUUUACCAAUACGAAGAUCAUGACAUAAGUCUUGCAUGGUAAUAACAGAA", "antisense": "UUCUGUUAUUACCAUGCAAGACUUAUGUCAUGAUCUUCGUAUUGGUAAAAAGUCUAGAAACCACGAUGAGAUAAUGGGACGACUUGCACGAAUGAAACAAAAUGCUAUCAAAGCUAGGAUGAAGCGAGAUAACCCUGAACUUGAAGAUUAUAUAGAUGGAAAAAGUGGUGACAAUUAUACCCUAAAUGAAAGUAGAAAGACUGAGCCAAGUUUAAAUAGCCAAAUCGCACCGCCGUCUGCUCCUCCGGUUGGUCCUAAAAUUCGCAUCGUUGAUGGUCAGAUUGUCUUCGAUGAGCAAUCUCUACAAAUUGACCGCCAUAAGAGUGCACGAGAAAAUUUUUUUGCUGCAGAAGAUGUUGUUGAAGAAAAUGAUUUUACUCGUGUUGUUUCCUGCGGUG"}, "B7": {"name": "GS3938 (nucleic acid)", "sense": "AUCGGCAAAAGUAAUGCUUCAAAAGCUGAUACAAAGACUAUAUGGAGAGGAGCUUUAAAUAUAUUGGAAGACUUAAAAAACGCAGAAAAGGAUUGGAGAUUUGGGAAAACUGAAAUUGUAGGGUUUGACAUUGAGAGAGAGAACCAAAUAGAUUGCCCUCAAAGUGAUAUGGAAAUCUUGCAGCAACAGUCAAGCAACACUGCAAGCUAUGCCAAUAAUUUCACCUCCGACCUUACACCUGAAGGCCGCCCAACAGGAAAAGUUACGAAAGCUCGAUUUCAGUCUGCAGAAAUAGGAAAAUGUACUCAAGUUGGAUGGGGAGUCGUACACCUAUACCGUGAUGAUAACGAUGCUGUUAAUUUUGAUACCCGAACUACUACAUACGAUGGAAA", "antisense": "UUUCCAUCGUAUGUAGUAGUUCGGGUAUCAAAAUUAACAGCAUCGUUAUCAUCACGGUAUAGGUGUACGACUCCCCAUCCAACUUGAGUACAUUUUCCUAUUUCUGCAGACUGAAAUCGAGCUUUCGUAACUUUUCCUGUUGGGCGGCCUUCAGGUGUAAGGUCGGAGGUGAAAUUAUUGGCAUAGCUUGCAGUGUUGCUUGACUGUUGCUGCAAGAUUUCCAUAUCACUUUGAGGGCAAUCUAUUUGGUUCUCUCUCUCAAUGUCAAACCCUACAAUUUCAGUUUUCCCAAAUCUCCAAUCCUUUUCUGCGUUUUUUAAGUCUUCCAAUAUAUUUAAAGCUCCUCUCCAUAUAGUCUUUGUAUCAGCUUUUGAAGCAUUACUUUUGCCGAU"}, "B8": {"name": "GS1820: dsRNA trigger SEQ ID NO 164; gene target Mitochondrial carrier protein LEU5 (nucleic acid)", "DNA": "TTTTTTACAGCCTCTTTGGGAAATCTTATGGATTGAGGCGAAGGCGGAACTTCATTATATATGATTTTGCAAATGTGTGAAAAGCTTGAGCTCGCACCTTTCTTTGTTTCAAAAGCTAGCCGAACCCTTATGACTTCTAAGGGATATGTGAAGAAAACACTAGCGACGCCTGCTAAACTGCCACTTAACAATCTTCGTAATGATGTTTCTTGCGTAGGTGATGATATAAGAAATGATCGTATTTGCTCGTAGGTTAAAAACTTGATCGCAGCATAAGGAAATATCCGAATTATAGTGGCAGAATGGCCACGAAATAGACCACTAATTCCATCAGTAGCTTTGATTTGCCGTATAGCAGTCACAACGCCGAGCCAGCTCCCAGCGTATCTGGAAAATTGTGGATTAGAAGATTGGAATAATATCTTCACACGATCTAAAGGTGCCACTATAGTTTTTGCCGCACTCCCTGCTAGTCCTCCAGCTAATCCTGACCGCCATATGAATCCCAAAGATTGCTTTTCATGAGTTTGGGATTTTGATGAATCTTTTTTATTTTTCGTAGAAGGGTATACTGCAATATTACTTTCATATAAAT"}},
  "data": [
    {"tested_on": "E. necator", "assay": "Leaf disc assay, dry inoculum (settling tower), decrease in disease severity / hyphal growth (Example 2)", "conditions": "decrease in disease severity (hyphal growth) relative to untreated control; time point 1 (untreated control hyphal growth ≥50%); value ± SE", "units": {"% decrease =/− SE TP1": "%"}, "values": [
      {"molecule": "B1", "% decrease =/− SE TP1": "29 ± 5"},
      {"molecule": "B2", "% decrease =/− SE TP1": "12 ± 6"},
      {"molecule": "B3", "% decrease =/− SE TP1": "4 ± 5"},
      {"molecule": "B4", "% decrease =/− SE TP1": "12 ± 5"},
      {"molecule": "B5", "% decrease =/− SE TP1": "52 ± 2"},
      {"molecule": "B6", "% decrease =/− SE TP1": "1 ± 5"},
      {"molecule": "B7", "% decrease =/− SE TP1": "3 ± 5"},
      {"molecule": "B8", "% decrease =/− SE TP1": "23 ± 4"}
    ]},
    {"tested_on": "E. necator", "assay": "Leaf disc assay, dry inoculum (settling tower), decrease in disease severity / hyphal growth (Example 2)", "conditions": "decrease in disease severity (hyphal growth) relative to untreated control; time point 2; value ± SE", "units": {"% decrease =/− SE TP2": "%"}, "values": [
      {"molecule": "B1", "% decrease =/− SE TP2": "19 ± 6"},
      {"molecule": "B2", "% decrease =/− SE TP2": "8 ± 9"},
      {"molecule": "B5", "% decrease =/− SE TP2": "49 ± 6"},
      {"molecule": "B8", "% decrease =/− SE TP2": "10 ± 6"}
    ]}
  ]
}
